Measurements taken from patent US20220332804A1 (CSL INNOVATION, published 2022).
Substitutions are numbered along the chain they refer to.

Experiments:
Assay in all cases: SPR, KD relative to WT C2;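 also: biacore SPR at 37 °C, anti-C2 mAbs captured via immobilised goat anti-human IgG, C2 alanine or serine surface mutants as analytes, 1:1 model fitted, double-referenced sensograms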
human C2 P724A = target: T1, human C2 P724A (human, UniProt P06681 21-752)
T1 sequence: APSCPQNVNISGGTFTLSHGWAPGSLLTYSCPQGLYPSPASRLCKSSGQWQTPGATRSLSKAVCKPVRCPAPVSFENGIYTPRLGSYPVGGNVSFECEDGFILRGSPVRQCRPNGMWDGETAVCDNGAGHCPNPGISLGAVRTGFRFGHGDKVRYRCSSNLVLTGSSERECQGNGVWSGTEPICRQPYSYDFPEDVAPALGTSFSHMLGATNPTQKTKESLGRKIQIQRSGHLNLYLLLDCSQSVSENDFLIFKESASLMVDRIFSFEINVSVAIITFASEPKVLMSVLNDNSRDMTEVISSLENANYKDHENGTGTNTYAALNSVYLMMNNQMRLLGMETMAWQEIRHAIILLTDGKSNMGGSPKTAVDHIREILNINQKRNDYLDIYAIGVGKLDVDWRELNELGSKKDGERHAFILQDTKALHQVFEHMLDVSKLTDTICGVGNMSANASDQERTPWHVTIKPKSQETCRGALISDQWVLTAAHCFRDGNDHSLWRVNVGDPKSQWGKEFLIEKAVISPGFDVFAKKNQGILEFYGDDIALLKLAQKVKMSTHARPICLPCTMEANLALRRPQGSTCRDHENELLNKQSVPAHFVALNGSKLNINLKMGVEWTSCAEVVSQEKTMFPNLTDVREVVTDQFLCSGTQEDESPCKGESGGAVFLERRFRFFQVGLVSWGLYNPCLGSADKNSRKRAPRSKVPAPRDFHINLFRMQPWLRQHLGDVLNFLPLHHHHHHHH

human C2 K329A = target: T2, human C2 K329A (human, UniProt P06681 21-752)
T2 sequence: T1 sequence with K309A, A704P

human C2 W420A = target: T3, human C2 W420A (human, UniProt P06681 21-752)
T3 sequence: T1 sequence with W400A, A704P

human C2 V455A = target: T4, human C2 V455A (human, UniProt P06681 21-752)
T4 sequence: T1 sequence with V435A, A704P

B1: RF16-226 (antibody, human IgG4 S228P, lambda)
heavy: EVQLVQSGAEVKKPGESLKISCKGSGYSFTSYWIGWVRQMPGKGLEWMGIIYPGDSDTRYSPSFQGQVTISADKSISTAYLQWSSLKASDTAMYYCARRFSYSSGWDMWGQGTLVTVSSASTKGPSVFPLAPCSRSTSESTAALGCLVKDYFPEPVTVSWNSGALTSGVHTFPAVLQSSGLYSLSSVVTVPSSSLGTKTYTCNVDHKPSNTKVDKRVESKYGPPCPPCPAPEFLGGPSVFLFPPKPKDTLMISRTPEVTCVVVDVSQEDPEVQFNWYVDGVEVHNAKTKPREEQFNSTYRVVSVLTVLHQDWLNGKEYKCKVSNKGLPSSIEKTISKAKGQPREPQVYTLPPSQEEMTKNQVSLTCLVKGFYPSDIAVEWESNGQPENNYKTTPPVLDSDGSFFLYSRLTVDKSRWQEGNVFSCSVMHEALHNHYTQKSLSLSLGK
light: SYELTQPPSVSVSPGQTARITCSGDALTSKYVAWYQQKSGLAPLLVIYEDTRRPSGIPAKFSGSSSGSVATLTISGAHGDDEADYYCYSTDASGHQRVFGGGTKLTVLSQPKAAPSVTLFPPSSEELQANKATLVCLISDFYPGAVTVAWKADGSPVKAGVETTKPSKQSNNKYAASSYLSLTPEQWKSHRSYSCQVTHEGSTVEKTVAPTECS
notes: pH-dependent anti-C2 antibody from a phage display library; also called WT
B1 gave a Fold diff (human C2 P724A) of 40 fold, a Fold diff (human C2 K329A) of 3 fold and a Fold diff (human C2 W420A) of 2 fold. It also gave a Fold diff (human C2 V455A) of 1 fold.
